Consider 3 substances from patent EP1073463B1.

The target in assay [1] is human FcR. The experiment in a line: cell-based or functional assay.
In assay [2] the target is human CD3 on Jurkat cells (human) (UniProt P07766). The experiment in a line: competition with 125I-UCHT1 on Jurkat cells, competitor at 1 nM.
Assay [3] shares this target. The experiment in a line: competition with 125I-UCHT1 on Jurkat cells, competitor at 100 nM.
For assay [4] the target is unchanged. The experiment in a line: cell-based or functional assay.
The target is the same in assay [5]. The assay is described as follows: competition with 125I-UCHT1 on Jurkat cells, SP2/0 preparation at 100 nM.
Assay [6] has the same target. The assay is described as follows: competition with 125I-UCHT1 on Jurkat cells, COS-7 preparation at 100 nM.
For assay [7] the target is unchanged. The assay is described as follows: competition with 125I-UCHT1 on Jurkat cells, COS-7 preparation at 1 nM.
Assay [8] shares this target. The experiment in a line: competition with 125I-UCHT1 on Jurkat cells, SP2/0 preparation at 1 nM.

UniProt P07766, sequence (P07766 23-207): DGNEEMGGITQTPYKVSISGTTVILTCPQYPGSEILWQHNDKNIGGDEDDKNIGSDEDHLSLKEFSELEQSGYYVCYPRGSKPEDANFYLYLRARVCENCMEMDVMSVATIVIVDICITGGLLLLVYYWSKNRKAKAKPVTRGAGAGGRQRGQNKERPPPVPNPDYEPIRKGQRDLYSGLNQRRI

In the case of “UCHT1 monoclonal antibody (anti-human CD3)”, in assay [1], the T-cell proliferation of human PBMCs ([3H]thymidine incorporation), concentration at peak was determined as 100 ng/mL and the T-cell proliferation of human PBMCs ([3H]thymidine incorporation), lowest active concentration stood at 0.1 ng/mL. The substance further yielded a % of 125I-UCHT1 bound to cells in assay [2] of 80%. The substance also displayed a % of 125I-UCHT1 bound to cells in assay [3] of 0%.

Take “sFv-DT390, anti-CD3 single-chain immunotoxin with truncated diphtheria toxin (from UniProt P00588 33-422)”: in assay [4], the IC50 (toxicity, inhibition of protein synthesis) came out at 48 pM; the Protein synthesis (% of controls), Jurkat cells, 1 x 10^-10 M, no serum (% of controls) turned out to be 18; the potency relative to UCHT1-CRM9 (fold of UCHT1-CRM9 potency) was 0.0625.

In the case of “scUCHT1, chimeric anti-human CD3 single chain antibody (UCHT1 VL-linker-VH fused to human IgM Fc µCH2 to µCH4) (from UniProt P01871 106-453) (scFv)”, the % of 125I-UCHT1 bound to cells in assay [5] was found to be 0%; in assay [6], 0%; in assay [7], 80%; in assay [8], 80%.
